This note sets out measurements from PMC3935622.

The stoichiometry N is the number of molecules, sites or subunits per partner or assembly.

For the test, the target named is S. Typhimurium CueP C172S mutant (S. Typhimurium). Nature of the test: SEC. On the technique in general: SEC sorts molecules by how far they enter the pores of the column.

As for “S. Typhimurium CueP C172S mutant (natural protein)”, the stoichiometry N was determined as 4.
